This is an account of results in publication PMC3239189 (Nucleic Acids Research, 2011).

For orientation: stoichiometry N means the number of molecules, sites or subunits per partner or assembly.

The data set “AUC” concerns the molecule itself. As to the kind of experiment: AUC.
The target of the next data set is T1, LHK-Exo (Laribacter hongkongensis HLHK9, UniProt C1D7P6 1-203).
T1 sequence: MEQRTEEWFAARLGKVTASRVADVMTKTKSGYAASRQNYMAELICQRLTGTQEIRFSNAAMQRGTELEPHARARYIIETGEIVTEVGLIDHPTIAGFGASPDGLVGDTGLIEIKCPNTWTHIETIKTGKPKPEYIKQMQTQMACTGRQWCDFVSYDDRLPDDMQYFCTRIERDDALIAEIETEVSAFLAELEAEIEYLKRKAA
As to the kind of experiment: X-ray crystallography.

B1: LHK-Exo (alkaline exonuclease from Laribacter hongkongensis HLHK9, LHK_01497) (enzyme, UniProt C1D7P6 1-203, looked up)
chain: T1 sequence
Consider B1, for which the “stoichiometry N” value in “AUC” amounted to 3.
For TTTTT (ssDNA, 5'-phosphate) [5'-PO4-(dT)5], the binding result in the data set with LHK-Exo was “binds”.
